± gives the uncertainty stated by the source.
Assay: amyloid nucleation score (Sup35N fusion, yeast selection) (log enrichment); library NNK1; higher = more nucleation; inactive = no reads after selection
Outline: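 Nucleation score: DiMSum log enrichment of output over input reads, centred on the mode score of non-aggregating sequences. Only sequences with at least 100 input reads were kept. Reads came from Illumina sequencing of plasmid inserts before and after 7 days of growth at 30°C without adenine and uracil, in psi-negative yeast expressing Sup35N fused to peptides of 20 random codons after 24 hours of induction with 100 μM copper sulfate.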

Substance	amyloid nucleation score
RCVKASLYDGEYMKLMDGVM	-0.407 ± 0.45
HGIFEGRITVILKGY	4.05 ± 0.15
NARYYYQSAIADVI	0.64 ± 0.29
IYLCCADFARIVMVTSTRWL	0.052 ± 0.5
YVSIYGQWVSSSCWTRRAYN	0.415 ± 0.32
MVCLVVSFGQCASTVFLFHL	1.83 ± 0.49
YPRPLWANRRPC	-0.151 ± 0.66
NGIMKIEKYG	0.312 ± 0.79
MMSEYSYESFHMLII	-2.05 ± 1.4
TSFCIETSGSILIELYGCWA	-0.356 ± 0.5
YVVIAEPGYSRDMISLMERC	-1.16 ± 1.3
QLEFVWLILTYHEGHYRIGK	inactive
TYIYSTILEVFYLSLGHVII	0.775 ± 0.35
FGFMKKRRDLSY	2.96 ± 0.091
AGGQGRLSRKVYSTMWVESL	1.17 ± 0.21
SLDLMCGHQPRSCMVLDSRV	0.983 ± 0.97
MVSDMLVKATVHPMYFMTLW	-0.34 ± 0.32
QVTNRMRLRLMYR	0.699 ± 0.37
YVSAVGLWVVLYYMMRMCAS	inactive
NNGKSIPFPGGARKVSLGSG	0.087 ± 0.26
LLGVSAF	-0.718 ± 0.68
MSMMLTRIAHTLSESWRTHW	-0.09 ± 0.97

Substance	amyloid nucleation score
FTSRYLDF	0.382 ± 1.2
LNLAKPLFSHRLRRFKCSYF	2.08 ± 0.23
MRVWKSILFDRSFFVFGLWR	-0.543 ± 0.6
CNKNNCWCYHCSYQVWHALY	0.381 ± 0.42
TWSRNIINFRIFWYTLFQVH	0.005 ± 0.29
IYFQVSRLMSVRRAMKSPKP	-0.666 ± 1.4
RINMGNYSLKWNMFTKVSLK	-0.227 ± 0.35
GVLSICGML	-0.401 ± 0.31
VPNYHAISYIVDLTMCSLFQ	8.383 ± 0.057
SVNLSI	-0.196 ± 0.37
YVSTIN	0.629 ± 0.42
LYSSLSYTKFMCAG	-0.51 ± 0.81
NSSVGVESHIFSIVDKMNTW	inactive
CMSRSYYYTSPKDPKEFNC	0.56 ± 0.33
ENVAITMVLPSAKMGSYMDG	0.453 ± 1.2
VVTSLIL	-0.999 ± 1.2
CNSRNITT	-0.345 ± 0.67
ISECDICERR	-0.236 ± 0.68
NLSCIHGLYYGSRLVSGLYQ	0.15 ± 0.71
RLYRWPIWWWVSLSEMGISQ	-0.205 ± 0.35
CACKLVQSIYLCESLGHPRS	5.73 ± 0.06
RSNNSFCIPLSFMCYVYQAT	-0.172 ± 1.6

Substance	amyloid nucleation score
MSSRQVPGFLMIGSLFARCI	-0.639 ± 0.55
LWMHAGSGRIKLETGCGAKC	inactive
FWCISVRVNYNGYYVYF	1.2 ± 0.26
RSIFSWSTR	0.641 ± 0.42
TGVRHATTC	1.13 ± 0.19
SVASGVMFRAYCFWWAARKV	0.27 ± 0.47
KLLSGRLDTFSGGGDYMCPV	inactive
VYLYMPPIDLL	-0.021 ± 0.46
KNLVWMDRVQFRLSWAHVRL	-1.38 ± 2.4
NSEISRGGVMGVCAVLLMSF	0.273 ± 0.97
GLQFSFVEFFSLYVESEDHY	0.332 ± 0.35
RGCSFFWCPLCRGYGGCLCC	0.482 ± 0.74
PHPVVLASLSIDWVPRCSES	-0.179 ± 1
VGNWYPGIG	inactive
QVRLVNWVCRM	3.71 ± 0.059
TVDGTECCWVDTRNNSRMVK	-0.941 ± 0.78
SIVIIG	-0.155 ± 0.7
FKRLNRFYRSLAIMTSTSHL	-0.149 ± 0.69
SETYVLLKNPSDNIMQKWCV	0.147 ± 0.79
DGLKFGFEINPAVRQ	1.11 ± 0.48
RFASISYVGTNSGLDVQSNW	0.171 ± 1.2
AQVNLIPNLRETLYDPAISR	0.665 ± 0.55

Substance	amyloid nucleation score
WFMPTSRSKVVYLPSYRCNE	0.432 ± 0.2
CNSVDVVLISATACYSWSTL	0.552 ± 0.48
TTIAIRVLFQIVMVVSESRS	-0.247 ± 0.24
VNSCFSQYYKGHPTLMHERL	0.01 ± 0.39
CSRVVWLVIRLLEMWIEPRA	0.815 ± 0.73
GHGYCLSWFNGNDPRGTTTT	1.1 ± 0.7
FGLYFRKISGLSPN	-0.211 ± 0.67
ILITSLWFSGVADVMANRVW	0.314 ± 0.34
QARSGPTPLTTWRTRQVTLG	-0.178 ± 0.51
KNSIYSCVTRTFSPMVLRYC	0.557 ± 0.54
SCGVLVSLFLYPKLNFGFYL	0.419 ± 0.4
VMAMSMLYSLMRNGKKLHFK	1.67 ± 0.6
GKSMYCYK	-0.96 ± 2.7
LRRLNRHFIVTFFNGTRCDF	2.1 ± 0.26
LNINSFFVFGT	4.97 ± 0.057
FACSFQSNLLDKKYTSLVNL	0.051 ± 0.55
RKPVVGSFIFTTFCKSYVDV	2.9 ± 0.1
FVGFGWYCLDFFHFLNASLG	-0.29 ± 1.4
MCDDHWFPAIYKRLVSSNKQ	1.87 ± 0.57
